Source: EP4814014A1, “BINDING MOLECULE AND ANTIBODY-DRUG CONJUGATE AND USE THEREOF” (priority 2023, dated 2025)
Substitutions are numbered along the chain they refer to. Numbers in names are those of the source.

Experiments:
human cMet on cells [1] = target: T1, human cMet on cells (human, UniProt P08581 25-1390); experiment: FACS, VHH-His on MKN45 cells
T1 construct: whole, on cells; Cell lines: CHO-S-cMet, CHOK1-hucMet, EBC-1, MKN45, NCI-H1975; the cell line is named under assay; also called CHO-S-cMet; CHOK1-hucMet

human cMet on cells [2] = target: T1, human cMet on cells; experiment: FACS, VHH-His on MKN45 cells; remark: listed apart in the source
human cMet on cells [3] = target: T1, human cMet on cells; experiment: FACS, VHH-His on CHOK1-hucMet cells
human EGFR on cells [4] = target: T2, human EGFR on cells (human, UniProt P00533 25-1210); experiment: FACS, VHH-His on MDA-MB-468 cells
T2 construct: whole, on cells; the cell line is named under assay; also called CHO-S-EGFR; CHOK1-huEGFR

human EGFR on cells [5] = target: T2, human EGFR on cells; experiment: FACS, VHH-His on CHOK1-huEGFR cells
[6] = target: Human EGFR antigen (SPR of Example 4.4) (human, UniProt P00533 25-645); experiment: SPR method I, antigen on CM5 chip, VHH-His injected, 1:1 model
[7] = target: Cyno EGFR antigen (SPR of Example 4.4) (cynomolgus monkey, UniProt A0A2K5WK39 25-645); experiment: as above
human cMet on cells [8] = target: T1, human cMet on cells; experiment: FACS, VHH-His on EBC-1 cells
[9] = target: T3, Cynomolgus monkey cMet antigen (cynomolgus monkey, UniProt A0A2K5UM36 25-932); experiment: SPR method I, antigen on CM5 chip, VHH-His injected, 1:1 model
T3 construct: treated as one molecule; also called cynomolgus monkey cMet-His antigen; Cyno cMet

Human cMet antigen = target: T4, Human cMet antigen (human, UniProt P08581 25-932); experiment: as above
T4 construct: treated as one molecule; also called Human cMet-His antigen

[10] = target: T5, cynomolgus monkey cMet-his (ECD, Met1-Thr932) (cynomolgus monkey, UniProt A0A2K5UM36 25-932); experiment: SPR, antigen amine-coupled on GLM chip, antibody injected, 1:1 model
T5 construct: Bought; range as printed includes Met1

[11] = target: T6, human cMet-his (ECD, Met1-Thr932) (human, UniProt P08581 25-932); experiment: as above
T6 construct: Bought; range as printed includes Met1

[12] = target: T7, cynomolgus monkey EGFR-his (ECD, Met1-Ser645) (cynomolgus monkey, UniProt A0A2K5WK39 1-645); experiment: as above
T7 construct: range 1-645; Bought; range as printed includes Met1

[13] = target: T8, human EGFR-his (ECD, Met1-Ser645) (human, UniProt P00533 25-645); experiment: as above
T8 construct: range 1-645; Bought; range as printed includes Met1

human cMet on cells [14] = target: T1, human cMet on cells; experiment: FACS competition on EBC-1 cells, HGF-His as the ligand detected, VHH-Fc from 100 nM

T4 sequence (P08581 25-932): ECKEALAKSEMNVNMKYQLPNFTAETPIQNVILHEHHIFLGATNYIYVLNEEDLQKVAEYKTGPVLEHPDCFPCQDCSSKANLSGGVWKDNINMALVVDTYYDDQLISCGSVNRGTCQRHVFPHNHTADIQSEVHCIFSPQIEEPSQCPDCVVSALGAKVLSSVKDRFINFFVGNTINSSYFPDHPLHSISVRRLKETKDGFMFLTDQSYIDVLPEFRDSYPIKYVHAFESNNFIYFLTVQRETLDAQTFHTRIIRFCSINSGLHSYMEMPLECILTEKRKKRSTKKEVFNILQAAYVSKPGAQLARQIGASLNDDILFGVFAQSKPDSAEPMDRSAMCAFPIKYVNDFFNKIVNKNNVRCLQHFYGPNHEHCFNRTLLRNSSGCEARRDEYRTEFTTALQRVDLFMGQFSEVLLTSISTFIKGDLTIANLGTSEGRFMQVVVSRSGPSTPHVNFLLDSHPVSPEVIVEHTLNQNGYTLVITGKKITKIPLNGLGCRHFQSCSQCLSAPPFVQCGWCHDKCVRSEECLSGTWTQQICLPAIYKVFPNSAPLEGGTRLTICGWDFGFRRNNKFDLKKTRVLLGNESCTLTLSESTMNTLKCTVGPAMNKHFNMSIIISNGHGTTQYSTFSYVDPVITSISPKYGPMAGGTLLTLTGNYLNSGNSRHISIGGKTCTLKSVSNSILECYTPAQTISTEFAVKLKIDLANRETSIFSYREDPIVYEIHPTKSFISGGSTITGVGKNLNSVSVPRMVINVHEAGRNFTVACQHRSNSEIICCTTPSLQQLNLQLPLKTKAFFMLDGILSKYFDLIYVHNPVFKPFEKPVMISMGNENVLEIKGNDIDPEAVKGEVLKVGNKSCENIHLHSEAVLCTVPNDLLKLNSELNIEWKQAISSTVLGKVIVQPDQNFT
T6 sequence (P08581 25-932): as above
T1 sequence (P08581 25-1390): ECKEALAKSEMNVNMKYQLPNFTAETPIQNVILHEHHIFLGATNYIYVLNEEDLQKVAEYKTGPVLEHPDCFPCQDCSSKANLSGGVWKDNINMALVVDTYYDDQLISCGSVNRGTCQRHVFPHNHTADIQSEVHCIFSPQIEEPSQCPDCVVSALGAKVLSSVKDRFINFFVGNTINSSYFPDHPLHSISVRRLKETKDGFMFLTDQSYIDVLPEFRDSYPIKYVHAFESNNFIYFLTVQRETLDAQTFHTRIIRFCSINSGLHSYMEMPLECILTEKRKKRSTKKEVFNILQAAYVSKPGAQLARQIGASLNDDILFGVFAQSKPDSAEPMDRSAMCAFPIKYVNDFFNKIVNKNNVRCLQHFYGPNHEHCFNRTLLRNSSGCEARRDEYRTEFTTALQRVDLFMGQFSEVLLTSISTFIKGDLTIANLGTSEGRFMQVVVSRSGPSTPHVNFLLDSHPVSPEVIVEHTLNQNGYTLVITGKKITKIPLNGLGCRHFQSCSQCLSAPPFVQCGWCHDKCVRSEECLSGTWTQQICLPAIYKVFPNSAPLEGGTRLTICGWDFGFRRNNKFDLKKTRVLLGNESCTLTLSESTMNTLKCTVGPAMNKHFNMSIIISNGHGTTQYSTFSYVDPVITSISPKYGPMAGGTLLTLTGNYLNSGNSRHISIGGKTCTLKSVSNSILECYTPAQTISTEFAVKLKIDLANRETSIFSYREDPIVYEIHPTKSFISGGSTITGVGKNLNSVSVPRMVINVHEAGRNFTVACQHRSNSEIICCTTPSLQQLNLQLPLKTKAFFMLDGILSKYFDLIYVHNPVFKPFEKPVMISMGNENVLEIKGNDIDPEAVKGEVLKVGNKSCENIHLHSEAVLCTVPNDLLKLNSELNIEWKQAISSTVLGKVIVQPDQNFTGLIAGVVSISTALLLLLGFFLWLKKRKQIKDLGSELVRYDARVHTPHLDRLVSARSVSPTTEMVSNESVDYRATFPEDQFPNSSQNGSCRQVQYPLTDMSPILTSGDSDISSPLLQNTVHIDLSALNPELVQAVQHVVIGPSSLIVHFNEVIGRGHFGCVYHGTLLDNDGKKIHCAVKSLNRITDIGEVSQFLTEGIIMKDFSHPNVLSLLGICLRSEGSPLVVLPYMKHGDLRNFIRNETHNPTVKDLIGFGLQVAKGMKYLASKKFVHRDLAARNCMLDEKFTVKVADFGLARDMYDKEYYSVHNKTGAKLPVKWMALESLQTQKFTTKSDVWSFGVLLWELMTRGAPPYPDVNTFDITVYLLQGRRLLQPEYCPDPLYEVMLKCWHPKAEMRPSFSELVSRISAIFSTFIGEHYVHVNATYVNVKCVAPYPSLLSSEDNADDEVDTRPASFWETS
T3 sequence (A0A2K5UM36 entry or part of it limits assumed, form in doubt): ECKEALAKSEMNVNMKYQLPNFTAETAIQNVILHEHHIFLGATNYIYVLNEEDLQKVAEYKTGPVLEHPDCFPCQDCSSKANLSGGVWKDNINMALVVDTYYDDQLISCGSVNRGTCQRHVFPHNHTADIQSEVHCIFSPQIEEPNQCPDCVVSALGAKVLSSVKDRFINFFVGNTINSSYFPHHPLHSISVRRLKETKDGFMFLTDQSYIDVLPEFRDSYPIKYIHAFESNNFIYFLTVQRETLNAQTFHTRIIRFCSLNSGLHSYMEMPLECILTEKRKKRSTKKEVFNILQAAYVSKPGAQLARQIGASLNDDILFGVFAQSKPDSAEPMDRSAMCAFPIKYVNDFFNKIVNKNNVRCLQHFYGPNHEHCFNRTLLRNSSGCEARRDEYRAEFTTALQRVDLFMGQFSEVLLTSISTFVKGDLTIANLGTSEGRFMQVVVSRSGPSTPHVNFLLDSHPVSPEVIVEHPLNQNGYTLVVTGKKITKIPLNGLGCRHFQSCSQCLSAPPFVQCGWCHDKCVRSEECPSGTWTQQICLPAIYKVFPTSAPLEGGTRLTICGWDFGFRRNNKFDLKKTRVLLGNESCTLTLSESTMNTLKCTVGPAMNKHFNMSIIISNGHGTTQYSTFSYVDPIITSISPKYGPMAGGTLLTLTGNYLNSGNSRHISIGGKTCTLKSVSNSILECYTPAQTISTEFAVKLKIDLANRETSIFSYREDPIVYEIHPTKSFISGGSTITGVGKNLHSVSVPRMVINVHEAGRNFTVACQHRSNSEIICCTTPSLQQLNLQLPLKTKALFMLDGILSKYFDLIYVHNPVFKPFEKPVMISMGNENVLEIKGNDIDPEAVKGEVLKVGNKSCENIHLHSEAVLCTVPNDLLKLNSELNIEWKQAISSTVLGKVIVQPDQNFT
T5 sequence (A0A2K5UM36 entry or part of it limits assumed, form in doubt): as above

B1: pn7A12.N32X.m1 (VHH, not shown: small tags and cut ends)
VHH: EVQLVESGGGLVQAGGSLRLSCVASGNIFSSYHMGWFRQAPGKQREFIAYITTREITNYADSVKGRFTISRDNTKNTVYLQMNVLKPEDTAVYYCIADQSREIRRSWGQGTQVTVSS
notes: PTM-removal anti-cMet VHH-His
EC50 (human cMet on cells [1]): 5.1 nM
Maximum MFI value (human cMet on cells [1]): 40400 MFI

B2: 7A12-M4 (VHH, not shown: small tags and cut ends)
VHH: B1 VHH with V12I, V23T, Y32N, T74S, V84N, K86R, P87S, Q112L
notes: Humanized anti-cMet VHH-His
EC50 (human cMet on cells [2]): 4.11 nM
Maximum MFI value (human cMet on cells [2]): 44700 MFI

B3: pn7A12.N32X.m6 (VHH, not shown: small tags and cut ends)
VHH: B1 VHH with Y32D
notes: PTM-removal anti-cMet VHH-His
EC50 (human cMet on cells [1]): 4.45 nM
Maximum MFI value (human cMet on cells [1]): 44700 MFI

B4: pn7A12.N32X.m4 (VHH, not shown: small tags and cut ends)
VHH: B1 VHH with Y32F
notes: PTM-removal anti-cMet VHH-His
EC50 (human cMet on cells [1]): 4.96 nM
Maximum MFI value (human cMet on cells [1]): 38000 MFI

B5: pn7A12.N32X.m3 (VHH, not shown: small tags and cut ends)
VHH: B1 VHH with Y32H
notes: PTM-removal anti-cMet VHH-His
EC50 (human cMet on cells [1]): 4.16 nM
Maximum MFI value (human cMet on cells [1]): 49600 MFI

B6: dpzn7A12m4.m1_3 (VHH, not shown: small tags and cut ends)
VHH: B1 VHH with V12I, V23T, T74A, V84S, K86R, Q112L
notes: Humanized + PTM removal + primary immunogenicity removal, anti-cMet VHH-His
EC50 (human cMet on cells [3]): 0.809 nM
Maximum MFI value (human cMet on cells [3]): 63400 MFI

B7: dpzn7A12m4.m1_1 (VHH, not shown: small tags and cut ends)
VHH: B1 VHH with V12I, V23T, T74S, V78L, V84S, K86R, P87A, Q112L
notes: as for B6
EC50 (human cMet on cells [3]): 0.716 nM
Maximum MFI value (human cMet on cells [3]): 73900 MFI

B8: zn9B8.m2 (VHH, not shown: small tags and cut ends)
VHH: EVQLLESGGGLVQPGGSLRLSCAASGLTFSYYAMAWFRQAPGKEREFVAAINWNGGNTYNTDSVKGRFTISRDNSKNTVYLQMNSLTPEDTAVYYCAVRYNSASYLVARSSDYNYWGQGTLVTVSS
notes: Humanized anti-EGFR VHH-His
EC50 (human EGFR on cells [4]): 2.49 nM
Maximum MFI value (human EGFR on cells [4]): 95800 MFI
EC50 (human EGFR on cells [5]): 3.94 nM
Maximum MFI value (human EGFR on cells [5]): 84300 MFI

B9: pzn9B8.m2.m12 (VHH, not shown: small tags and cut ends)
VHH: B8 VHH with G55A, S102A
notes: Humanized + PTM-removal anti-EGFR VHH-His
EC50 (human EGFR on cells [5]): 4.96 nM
Maximum MFI value (human EGFR on cells [5]): 85700 MFI

B10: pzn9B8.m2.m11 (VHH, not shown: small tags and cut ends)
VHH: B8 VHH with G55Q, S102Q
notes: Humanized + PTM-removal anti-EGFR VHH-His; also called hu9B8
EC50 (human EGFR on cells [5]): 3.39 nM
Maximum MFI value (human EGFR on cells [5]): 80100 MFI

B11: V-n5B10 anti-EGFR VHH-His (VHH, not shown: small tags and cut ends)
VHH: AVQLVDSGGGLVQPGGSLRLDCSASGTIIGTYTMAWYRQAPGKQREMVAIITPGGGSHHADSVKGRFTISRDNGKSTVYLQMSSLKFEDTAVYYCNAKARWGTTEYWGQGTQVTVSS
notes: Monovalent parent VHH
EC50 (human EGFR on cells [4]): 15 nM
Maximum MFI value (human EGFR on cells [4]): 111000 MFI
Kd [6]: 23.2 nM
koff [6]: 0.00536 s⁻¹
kon [6]: 232000 M⁻¹ s⁻¹
Kd [7]: 7.36 nM
koff [7]: 0.00384 s⁻¹
kon [7]: 522000 M⁻¹ s⁻¹

B12: VHH10 (VHH, not shown: small tags and cut ends)
VHH: QSQLVESGGGLVKPGGSLRLSCVASGFTISRSIMSWYRQAPGKERDWVASIGSAGNTNYVDSVKGRFTISRDNAKNSLYLQMNSLRAEDTAVYYCKTTLAVSFSEYWGQGTLVTVSS
notes: Humanized 9A2 anti-cMet VHH-His; also called hu9A2
EC50 (human cMet on cells [8]): 1.63 nM
Maximum MFI value (human cMet on cells [8]): 233000 MFI

B13: VHH8 (VHH, not shown: small tags and cut ends)
VHH: B12 VHH with Q1E, V5L, K13Q, A74S, S77T, L78V
notes: Humanized 9A2 anti-cMet VHH-His
EC50 (human cMet on cells [8]): 2.5 nM
Maximum MFI value (human cMet on cells [8]): 143000 MFI

B14: VHH9 (VHH, not shown: small tags and cut ends)
VHH: B12 VHH with Q1E, V5L, K13Q, N73V, A74S, S77T
notes: as for B13
EC50 (human cMet on cells [8]): 1.63 nM
Maximum MFI value (human cMet on cells [8]): 194000 MFI

B15: V-n9A2 anti-cMet VHH-His (VHH, not shown: small tags and cut ends)
VHH: QSQLAESGGGLVQSGGSLGLSCVASGFTISRSIMSWYRQPPGKERDWVASIGSAGNTNYVDSVKGRFTISRDVAKNTVYLQMNSLKPEDTAVYYCKTTLAVSFSEYWGQGTQVTVSS
notes: Monovalent parent VHH
EC50 (human cMet on cells [8]): 1.56 nM
Maximum MFI value (human cMet on cells [8]): 291000 MFI
Kd [9]: 70.3 nM
koff [9]: 0.0072 s⁻¹
kon [9]: 102000 M⁻¹ s⁻¹
Kd (Human cMet antigen): 16 nM
koff (Human cMet antigen): 0.0029 s⁻¹
kon (Human cMet antigen): 181000 M⁻¹ s⁻¹

B16: V-15 (10A1-7A12-9A2) (bispecific antibody)
chain: QVQLVESGGGLVQAGGSLRLSCAASGRTGSLHAMGWFRQAPGKERERVATLNLSDGSAVTADSVKGRFTISTDNTKNSVYLQMNSLKPEDTAVYYCTASRSPSGIRYYKPDYWGQGTQVTVSSGGGGSEVQLVESGGGLVQAGGSLRLSCVASGNIFSSNHMGWFRQAPGKQREFIAYITTREITNYADSVKGRFTISRDNTKNTVYLQMNVLKPEDTAVYYCIADQSREIRRSWGQGTQVTVSSGGGGSGGGGSQSQLAESGGGLVQSGGSLGLSCVASGFTISRSIMSWYRQPPGKERDWVASIGSAGNTNYVDSVKGRFTISRDVAKNTVYLQMNSLKPEDTAVYYCKTTLAVSFSEYWGQGTQVTVSS
notes: Single-chain trispecific anti-EGFR/cMet antibody
Kd [10]: 4.49 nM
koff [10]: 0.000831 s⁻¹
kon [10]: 185000 M⁻¹ s⁻¹
Kd [11]: 6.61 nM
koff [11]: 0.00125 s⁻¹
kon [11]: 189000 M⁻¹ s⁻¹
Kd [12]: 22.8 nM
koff [12]: 0.00764 s⁻¹
kon [12]: 335000 M⁻¹ s⁻¹
Kd [13]: 28.3 nM
koff [13]: 0.00943 s⁻¹
kon [13]: 334000 M⁻¹ s⁻¹

B17: 7A12-M1 (VHH, not shown: small tags and cut ends)
VHH: EVQLVESGGGLVQPGGSLRLSCAASGNIFSSNHMGWVRQAPGKGLEWVAYITTREITNYADSVKGRFTISRDNSKNTVYLQMNSLRAEDTAVYYCIADQSREIRRSWGQGTLVTVSS
notes: Humanized anti-cMet VHH-His
EC50 (human cMet on cells [2]): 88.1 nM
Maximum MFI value (human cMet on cells [2]): 56600 MFI

B18: V-n10A1 anti-EGFR VHH-His (VHH, not shown: small tags and cut ends)
VHH: QVQLVESGGGLVQAGGSLRLSCAASGRTGSLHAMGWFRQAPGKERERVATLNLSDGSAVTADSVKGRFTISTDNTKNSVYLQMNSLKPEDTAVYYCTASRSPSGIRYYKPDYWGQGTQVTVSS
notes: Monovalent parent VHH
Maximum MFI value (human EGFR on cells [4]): 5830 MFI
Maximum MFI value (human EGFR on cells [4]; record 2): 5160 MFI
Maximum MFI value (human EGFR on cells [5]): 2760 MFI
Kd [6]: 37.4 nM
koff [6]: 0.0258 s⁻¹
kon [6]: 691000 M⁻¹ s⁻¹
Kd [7]: 17.2 nM
koff [7]: 0.01 s⁻¹
kon [7]: 581000 M⁻¹ s⁻¹

B19: pzn10A1_m6m5 (VHH, not shown: small tags and cut ends)
VHH: B18 VHH with A14P, G56V, T75S, K87R, P88A, Q118L
Maximum MFI value (human EGFR on cells [5]): 3570 MFI

B20: ppzn10A1_m6m5.m3 (VHH, not shown: small tags and cut ends)
VHH: B18 VHH with A14P, N52Q, G56V, T75S, K87R, P88A, Q118L
Maximum MFI value (human EGFR on cells [5]): 4770 MFI

B21: ppzn10A1_m6m5.m1 (VHH, not shown: small tags and cut ends)
VHH: B18 VHH with A14P, N52R, G56V, T75S, K87R, P88A, Q118L
Maximum MFI value (human EGFR on cells [5]): 2470 MFI

B22: V-n9A10 anti-cMet VHH-Fc (Fc fusion, not shown: a dimerising Fc or GST)
chain: QVQLVESGGGLVQPGGSLRLSCEASGFTFSSYVMSWYRQAPGKERELVALISSTTGSSTKYGDSVKGRFTISRDNAKNTVYLQMNSLKPEDTAVYYCNAMIGWNNHWGQGTHVTVSS
MFI value at the highest concentration (human cMet on cells [14]): 77200 MFI
ratio of MFI value at the highest concentration to that at the lowest concentration (human cMet on cells [14]): 1.14
